Reference: the supplement of paper PMC9170038

System: MS2 coat protein
Experiment: apparent KD of MS2 coat protein; designed switch direction (-1 OFF switch, 1 ON switch): -1; higher = weaker reporter binding
Outline: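 On Illumina chips, designed RNA switches with common flanks were made by stalled E. coli RNA polymerase. Titrations with SNAP-549-labelled MS2 coat protein, doubling from 0.7 or 1.5 nM to 3 µM, were done with no input, with 200 uM small-molecule ligand, or with an oligonucleotide input. Apparent KD is the median per design over clusters, from curve fits of normalised cluster fluorescence.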

[1] = Eterna round: R95, input ligand: microRNA oligo, concentration not stated
[2] = Eterna round: R95, input ligand: FMN 200 uM
[3] = Eterna round: R95, input ligand: none
[4] = input ligand: microRNA oligo, concentration not stated

Sequence | apparent KD of MS2 coat protein [1] | apparent KD of MS2 coat protein (input ligand: FMN 200 uM) | apparent KD of MS2 coat protein (input ligand: none) | other results
AAUAACAGAGGAUAUACUAUUUUAUGUGUUUGUUAUUUUGAACAUGAGGAUCACCCAUGUAGAAGGCUGAGUAA [JMF 36] (puzzle: Exclusion 2) | 26.8 nM |  |  | 
AAUAACAGAGGAUAUACUAUUUUAUGUGUUUGUUGUUUUAAACAUGAGGAUCACCCAUGUAGAAGGCUGAAUGA [JMF 61] (puzzle: Exclusion 2) | 23.8 nM |  |  | 
AAUAACAGAGGAUAUACUAUUUUAUGUGUUUGUUGUUUUAAACAUGAGGAUCACCCAUGUAGAAGGCUGAUUAA [JMF 46] (puzzle: Exclusion 2) | 33.1 nM |  |  | 
AAUAACAGAGGAUAUACUGUUUUAUGUAUUUAUUAUUUUAAACAUGAGGAUCACCCAUGUAGAAGGCUGAAUAA [JMF 12] (puzzle: Exclusion 2) | 19.1 nM |  |  | 
AAUAACAGAGGAUAUACUGUUUUAUGUGUUUAUUAUUUUGAACAUGAGGAUCACCCAUGUAGAAGGCUGAAUAA [JMF 21] (puzzle: Exclusion 2) | 22.2 nM |  |  | 
AAUAACAGAGGAUAUACUGUUUUAUGUGUUUAUUAUUUUGAACAUGAGGAUCACCCAUGUAGAAGGCUGAAUGA [JMF 63] (puzzle: Exclusion 2) | 27.6 nM |  |  | 
AAUAACAGAGGAUAUACUGUUUUAUGUGUUUGUUGUUUUGAACAUGAGGAUCACCCAUGUAGAAGGCUGAAUGA [JMF 68] (puzzle: Exclusion 2) | 24.2 nM |  |  | 
AAUAACAGAGGAUAUACUGUUUUAUGUGUUUGUUGUUUUGAACAUGAGGAUCACCCAUGUAGAAGGCUGAGUAA [JMF 41] (puzzle: Exclusion 2) | 22.9 nM |  |  | 
AAUAACUUAGGAUAUACAUGAGGAUCACCCAUGUCCCACCCGUUACCCAUGACCAUAUGUAGAAGGAAGAAGAA [Exy#8] (Eterna round: R97, puzzle: Exclusion 3) |  | 28 nM | 35.7 nM | 
AAUAAGCAAGGAUAUACGACGAAAAGCGUCAGUGGGCGAUGACAUGAGGAUCACCCAUGUAGAAGGUGCACAUC [Isragela] (puzzle: Exclusion 2) | 125 nM |  |  | apparent KD of MS2 coat protein [2]: 314 nM; apparent KD of MS2 coat protein [3]: 203 nM
AAUAAGCGAGGAUAUACAUGAGGAUCACCCAUGUGGACCGGGUGUUCAGCAAAUAAAAGUAGAAGGCGCAAAAG [Tibiater] (puzzle: Exclusion 3) | 46.8 nM |  |  | apparent KD of MS2 coat protein [2]: 29.1 nM; apparent KD of MS2 coat protein [3]: 25.8 nM
AAUAAGGGAGGAUAUGCGGAACGGUUUGUUCUCAGUGAGGCACAUGAGGAUCACCCAUGUAGAAGGCCCGGCAA [Orinar] (Eterna round: R96, puzzle: Exclusion 2) |  | 63.4 nM | 17.4 nM | apparent KD of MS2 coat protein [4]: 12.1 nM
AAUAAGGGAGGAUAUGCGGAACGGUUUGUUCUCAGUGAGGCACAUGAGGAUCACCCAUGUAGAAGGCCCGGCAA [Orinar] (puzzle: Exclusion 2) | 13 nM |  |  | 
AAUAAUAAAGUGAGGAUAUCUAGAGCCUCGGCUCUAGAGAAGGCACAUGAGGAUCACCCAUGUCUCAAUAAUAA [BmEx4/1-C5] (Eterna round: R97, puzzle: Brourd's mod of Exclusion 4) |  | 60.5 nM | 21.3 nM | 
AAUAAUAAGGAGGAUAUCGUAUCGGAGACGAUACGAGAAGGCUUAACAUGAGGAUCACCCAUGUUCCUCAAUAA [Mat - Exclusion 6 - Eli Mod - D89] (puzzle: Exclusion 6) | 35.2 nM |  |  | 
AAUACAAGCUAUUGAUCCCACAUGAGGAUCACCCAUGUUCCUGGCCGUGAGGCUAGGUAGACAAUAGCUCGUCUUAU [Sensor-V1 #43] (Eterna round: R97, puzzle: Sensor, turn-off variant 1) |  | 27.9 nM | 26.4 nM | 
AAUACAAUAAUUAAAGAGAUAGUACAUUAUACAAGUGAAACAUGAGGAUCACCCAUGUCCUCAUUUGCUCGUCUAAU [Hunting Buffalo with a BB Gun] (puzzle: Sensor v3, turn-off variant 2) | 142 nM |  |  | apparent KD of MS2 coat protein [2]: 334 nM; apparent KD of MS2 coat protein [3]: 435 nM
AAUAUACAUGUAGGAUAUCUGCACGUGUAGUGCAGAGAAGGACAUGAGGAUCACCCAUGUAAUUAAGAUCAAUUAUUAAAUAUU [ENG1/3-B3] (Eterna round: R96, puzzle: Exclusion NG 1) |  | 447 nM | 62.3 nM | apparent KD of MS2 coat protein [4]: 32.2 nM
AAUAUCGUAGGAUAUUAGUGCUCAGACAUGAGGAUCACCCAUGUUUGGUGGGUUGGAGAAUGAGAAGGGCGAUGAA [EX5 #17] (Eterna round: R97, puzzle: Exclusion 5) |  | 376 nM | 687 nM | 
AAUAUGUUAGGAUAUCUCAGCUGCCCGUAAACAGGCUAGCGAGAGAAGGGACAUGAGGAUCACCCAUGUCAUCC [Eternabot (Original) Solution 2] (Eterna round: R97, puzzle: Exclusion 4) |  | 17.1 nM | 15.6 nM | 
